Test results as given in the supplement of paper PMC10567573.

B1: SNX8 (parent)
chain: RMVPALPPKRMLGADREFIEARRR
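Also: lentivirally expressed fusions sorted by FACS into six bins by GFP to DsRed ratio, PSI derived from sequencing read proportions per bin multiplied by bin number.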

Variants of: B1
Test: protein stability index of a GFP-peptide fusion (GPS, HEK-293T) (PSI 1-6); higher = more stable
Conditions: c terminus: a fixed tail appended
With RMVPALPPKRMLGADRENIEARRR [F18N] the protein stability index was 4.45. Work on RMVPALPPKRMLGADRETIEARRR [F18T] yielded a protein stability index of 4.2. RMVPALPPKRMLGADRESIEARRR [F18S] showed a protein stability index of 4.38. For RMVPALPPKRMLGADREKIEARRR [F18K], the protein stability index was 4.26. Work on RMVPALPPKRMLGADREPIEARRR [F18P] yielded a protein stability index of 4.64. With RMVPALPPKRMLGADRECIEARRR [F18C] the protein stability index was 4.45. RMVPALPPKRMLGADREIIEARRR [F18I] gave a protein stability index of 3.85. RMVPALPPKRMLGADREHIEARRR [F18H] showed a protein stability index of 4.18. With RMVPALPPKRMLGADRELIEARRR [F18L] the protein stability index was 3.84. In the case of RMVPALPPKRMLGADREAIEARRR [F18A], the protein stability index is reported as 3.56. Work on RMVPALPPKRMLGADREMIEARRR [F18M] yielded a protein stability index of 3.78. For RMVPALPPKRMLGADREQIEARRR [F18Q], the protein stability index was 4.46. For RMVPALPPKRMLGADREEIEARRR [F18E], the protein stability index was 4.43. With RMVPALPPKRMLGADREWIEARRR [F18W] the protein stability index was 3.75. Variant RMVPALPPKRMLGADREDIEARRR [F18D] has a protein stability index of 4.08. Work on RMVPALPPKRMLGADREGIEARRR [F18G] yielded a protein stability index of 4.57. Work on RMVPALPPKRMLGADREVIEARRR [F18V] yielded a protein stability index of 4.12. Variant RMVPALPPKRMLGADREYIEARRR [F18Y] has a protein stability index of 4.07. With RMVPALPPKRMLGADRERIEARRR [F18R] the protein stability index was 4.52. In the case of RMVPALPPKRMLGADRWFIEARRR [E17W], the protein stability index is reported as 2.19. For RMVPALPPKRMLGADRNFIEARRR [E17N], the protein stability index was 4. Work on RMVPALPPKRMLGADRFFIEARRR [E17F] yielded a protein stability index of 2.08. Work on RMVPALPPKRMLGADRIFIEARRR [E17I] yielded a protein stability index of 2.64. RMVPALPPKRMLGADRPFIEARRR [E17P] showed a protein stability index of 4.09. RMVPALPPKRMLGADRAFIEARRR [E17A] gave a protein stability index of 3.55. In the case of RMVPALPPKRMLGADRGFIEARRR [E17G], the protein stability index is reported as 3.97. In the case of RMVPALPPKRMLGADRMFIEARRR [E17M], the protein stability index is reported as 2.38. Variant RMVPALPPKRMLGADRKFIEARRR [E17K] has a protein stability index of 4.19. Variant RMVPALPPKRMLGADRYFIEARRR [E17Y] has a protein stability index of 3.21. Variant RMVPALPPKRMLGADRQFIEARRR [E17Q] has a protein stability index of 3.34. For RMVPALPPKRMLGADRRFIEARRR [E17R], the protein stability index was 4.1. For RMVPALPPKRMLGADRSFIEARRR [E17S], the protein stability index was 3.87. In the case of RMVPALPPKRMLGADRTFIEARRR [E17T], the protein stability index is reported as 3.55. In the case of RMVPALPPKRMLGADRLFIEARRR [E17L], the protein stability index is reported as 3.37. Variant RMVPALPPKRMLGADRVFIEARRR [E17V] has a protein stability index of 2.81. Variant RMVPALPPKRMLGADRHFIEARRR [E17H] has a protein stability index of 3.45. Variant RMVPALPPKRMLGADRDFIEARRR [E17D] has a protein stability index of 3.67. RMVPALPPKRMLGADRCFIEARRR [E17C] showed a protein stability index of 3.61. RMVPALPPKRMLGADREFIERRRR [A21R] gave a protein stability index of 3.56. Variant RMVPALPPKRMLGADREFIEYRRR [A21Y] has a protein stability index of 3.24. Work on RMVPALPPKRMLGADREFIEPRRR [A21P] yielded a protein stability index of 3.88. In the case of RMVPALPPKRMLGADREFIEKRRR [A21K], the protein stability index is reported as 4.19. For RMVPALPPKRMLGADREFIETRRR [A21T], the protein stability index was 3.96. For RMVPALPPKRMLGADREFIELRRR [A21L], the protein stability index was 4.1. For RMVPALPPKRMLGADREFIEQRRR [A21Q], the protein stability index was 3.61. For RMVPALPPKRMLGADREFIEWRRR [A21W], the protein stability index was 2.67. Work on RMVPALPPKRMLGADREFIEVRRR [A21V] yielded a protein stability index of 3.76. In the case of RMVPALPPKRMLGADREFIEIRRR [A21I], the protein stability index is reported as 3.34. Work on RMVPALPPKRMLGADREFIEMRRR [A21M] yielded a protein stability index of 3.04. Variant RMVPALPPKRMLGADREFIECRRR [A21C] has a protein stability index of 4.08. RMVPALPPKRMLGADREFIESRRR [A21S] showed a protein stability index of 3.12. RMVPALPPKRMLGADREFIEHRRR [A21H] gave a protein stability index of 4.32. For RMVPALPPKRMLGADREFIEFRRR [A21F], the protein stability index was 3.31. In the case of RMVPALPPKRMLGADREFIEDRRR [A21D], the protein stability index is reported as 3.83. RMVPALPPKRMLGADREFIEERRR [A21E] gave a protein stability index of 3.43. RMVPALPPKRMLGADREFIENRRR [A21N] gave a protein stability index of 4.52. In the case of RMVPALPPKRMLGADREFIEGRRR [A21G], the protein stability index is reported as 4.32. With RMVPALPPKRMLGADREFGEARRR [I19G] the protein stability index was 3.96. Variant RMVPALPPKRMLGADREFMEARRR [I19M] has a protein stability index of 3.55. In the case of RMVPALPPKRMLGADREFKEARRR [I19K], the protein stability index is reported as 4.26. Work on RMVPALPPKRMLGADREFVEARRR [I19V] yielded a protein stability index of 4.09. RMVPALPPKRMLGADREFAEARRR [I19A] showed a protein stability index of 4.23. RMVPALPPKRMLGADREFYEARRR [I19Y] showed a protein stability index of 3.98. In the case of RMVPALPPKRMLGADREFWEARRR [I19W], the protein stability index is reported as 3.82. For RMVPALPPKRMLGADREFLEARRR [I19L], the protein stability index was 3.06. For RMVPALPPKRMLGADREFNEARRR [I19N], the protein stability index was 3.73. Variant RMVPALPPKRMLGADREFPEARRR [I19P] has a protein stability index of 4.65. With RMVPALPPKRMLGADREFREARRR [I19R] the protein stability index was 4.16. With RMVPALPPKRMLGADREFQEARRR [I19Q] the protein stability index was 4.29. In the case of RMVPALPPKRMLGADREFHEARRR [I19H], the protein stability index is reported as 3.35. Work on RMVPALPPKRMLGADREFSEARRR [I19S] yielded a protein stability index of 3.43. RMVPALPPKRMLGADREFEEARRR [I19E] showed a protein stability index of 4.11. Variant RMVPALPPKRMLGADREFTEARRR [I19T] has a protein stability index of 4.39. In the case of RMVPALPPKRMLGADREFCEARRR [I19C], the protein stability index is reported as 3.36. With RMVPALPPKRMLGADREFFEARRR [I19F] the protein stability index was 3.61. Variant RMVPALPPKRMLGADREFDEARRR [I19D] has a protein stability index of 4.41. Work on RMVPALPPKRMLGADREFIEAGRR [R22G] yielded a protein stability index of 4.02. Work on RMVPALPPKRMLGADREFIEAARR [R22A] yielded a protein stability index of 4.33. RMVPALPPKRMLGADREFIEAERR [R22E] gave a protein stability index of 4.43. For RMVPALPPKRMLGADREFIEADRR [R22D], the protein stability index was 4.53. With RMVPALPPKRMLGADREFIEACRR [R22C] the protein stability index was 4. For RMVPALPPKRMLGADREFIEAFRR [R22F], the protein stability index was 3.58. For RMVPALPPKRMLGRDREFIEARRR [A14R], the protein stability index was 3.73. In the case of RMVPALPPKRMLGTDREFIEARRR [A14T], the protein stability index is reported as 3.63. Work on RMVPALPPKRMLGDDREFIEARRR [A14D] yielded a protein stability index of 4.19. With RMVPALPPKRMLGVDREFIEARRR [A14V] the protein stability index was 3.02. In the case of RMVPALPPKRMLGQDREFIEARRR [A14Q], the protein stability index is reported as 3.81. Work on RMVPALPPKRMLGFDREFIEARRR [A14F] yielded a protein stability index of 3.37. RMVPALPPKRMLGYDREFIEARRR [A14Y] gave a protein stability index of 2.88. RMVPALPPKRMLGCDREFIEARRR [A14C] showed a protein stability index of 3.52. RMVPALPPKRMLGPDREFIEARRR [A14P] gave a protein stability index of 4. RMVPALPPKRMLGWDREFIEARRR [A14W] gave a protein stability index of 2.51. In the case of RMVPALPPKRMLGGDREFIEARRR [A14G], the protein stability index is reported as 3.96. For RMVPALPPKRMLGSDREFIEARRR [A14S], the protein stability index was 3.9.
